Laboratory results as given in patent US7642231 (MAYO FOUNDATION FOR MEDICAL EDUCATION AND RESEARCH A …, dated 2010).
Like-named read-outs stand apart in the source and are kept apart here. Numbered stars: 1 amine (or outer) side, 2 acyl side, 3 side chain; on linkers, the order of the positions; unused ones are H or OH. Square brackets hold non-standard residues; d marks the D form. Ends that are not written are not given here. dneoTrp = D-neo-Trp, (2R)-2-amino-3-(1H-indol-4-yl)propanoic acid, O=C([C@@H](Cc1cccc2[nH]ccc12)N[*:1])[*:2]; Ala(indol-4-yl) = N[C@@H](Cc1cccc2[nH]ccc12)C(=O)O; 1Nal = N[C@@H](Cc1cccc2ccccc12)C(=O)O; NMeR = CN[C@@H](CCCNC(=N)N)C(=O)O; Tle = CC(C)(C)[C@H](N)C(=O)O

Columns and labels:
[1] = target: NT binding sites within rat brain (PAG and rest of brain homogenates) (rat); assay: 0.3 nM [125I]NT binding to PAG homogenate of control rats
[2] = target: NT binding sites within rat brain (PAG and rest of brain homogenates) (rat); assay: 0.3 nM [125I]NT binding to PAG homogenate of NT69L-treated rats
[3] = target: NT binding sites within rat brain (PAG and rest of brain homogenates) (rat); assay: 0.3 nM [125I]NT binding to rest-of-brain homogenate of NT69L-treated rats
human NTR1 [4] = target: T1, human NTR1 (human, UniProt P30989 1-418); assay: cell-based or functional assay
rat NTR1 [5] = target: T2, rat NTR1 (rat, UniProt P20789 1-424); assay: cell-based or functional assay
[6] = target: Dopamine receptors, human brain tissue (human) (UniProt P14416); assay: radiolabeled competitive binding assay, human brain tissue
[7] = target: adrenergic α2 receptors, human brain tissue (human); assay: as above
[8] = target: T3, 5HT2A receptor in human brain tissue (human, UniProt P28223 1-471); assay: competition with [3H]ketanserin, human brain tissue
T3 construct: whole, on cells; Native receptor in human brain tissue, labeled with [3H]ketanserin; also called serotonin receptor

human NTR1 [9] = target: T1, human NTR1; assay: competition with [3H]NT, membranes of CHO-K1 cells expressing human NTR1
rat NTR1 [10] = target: T2, rat NTR1; assay: competition with [3H]NT, membranes of CHO-K1 cells expressing rat NTR1
Procedure: (§1) For binding assays, crude membranal preparations were prepared by centrifugation of the cellular pellet at 35,600×g for ten minutes. The supernatant was decanted and discarded, and the cellular pellet was resuspended in 2 mL of Tris-HCl, 1 mM EDTA (pH 7.4) followed by homogenization with a Brinkmann Polytron at setting 6 for ten seconds. Centrifugation was repeated as above and the supernatant was decanted and discarded. The resulting final cellular pellet was resuspended in 50 mM Tris-HCl, 1 mM EDTA, 0.1% bovine serum albumin, and 0.2 mM bacitracin.
(§2) Incubation was at 20° C. for 30 minutes. Each reaction was terminated by addition of cold 0.9% NaCl (5×1.5 mL) followed by rapid filtration through a GF/B filter strip that had been pretreated with 0.2% polyethylenimine.

rat NTR1 [11] = target: T2, rat NTR1; assay: radiolabeled competitive binding assay, CHO cells expressing rat NTR (repeats Table II)
Procedure: as §1, §2

human NTR1 [12] = target: T1, human NTR1; assay: radiolabeled competitive binding assay, CHO cells expressing human NTR (repeats Table II)
Procedure: as §1, §2

human NTR1 [13] = target: T1, human NTR1; assay: cell-based or functional assay; remark: listed apart in the source
human NTR1 [14] = target: T1, human NTR1; assay: cell-based or functional assay; remark: listed apart in the source
human NTR1 [15] = target: T1, human NTR1; assay: competition with [3H]NT, membranes of CHO-K1 cells expressing human NTR1
Procedure: as §1, §2

human NTR1 [16] = target: T1, human NTR1; assay: competition with [3H]NT, CHO-K1 membranes; receptor not given, human taken from the context
Procedure: as §1, §2

human NTR1 [17] = target: T1, human NTR1; assay: competition with [3H]NT, CHO-K1 membranes; receptor not given, human fits Table II
Procedure: as §1, §2

[18] = target: adrenergic α1 receptors, human brain tissue (human); assay: radiolabeled competitive binding assay, human brain tissue

T2 sequence (P20789 whole entry): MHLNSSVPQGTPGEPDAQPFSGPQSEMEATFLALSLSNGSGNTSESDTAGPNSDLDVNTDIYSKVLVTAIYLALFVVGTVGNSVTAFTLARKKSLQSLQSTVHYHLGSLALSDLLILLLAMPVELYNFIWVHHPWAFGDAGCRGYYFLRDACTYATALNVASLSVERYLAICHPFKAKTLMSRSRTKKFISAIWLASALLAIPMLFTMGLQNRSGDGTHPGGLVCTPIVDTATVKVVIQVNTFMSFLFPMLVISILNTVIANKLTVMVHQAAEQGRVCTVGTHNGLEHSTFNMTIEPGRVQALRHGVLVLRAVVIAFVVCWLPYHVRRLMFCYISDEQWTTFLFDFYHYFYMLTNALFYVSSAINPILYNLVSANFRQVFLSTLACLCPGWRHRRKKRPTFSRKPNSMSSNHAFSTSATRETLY
T3 sequence (P28223 whole entry): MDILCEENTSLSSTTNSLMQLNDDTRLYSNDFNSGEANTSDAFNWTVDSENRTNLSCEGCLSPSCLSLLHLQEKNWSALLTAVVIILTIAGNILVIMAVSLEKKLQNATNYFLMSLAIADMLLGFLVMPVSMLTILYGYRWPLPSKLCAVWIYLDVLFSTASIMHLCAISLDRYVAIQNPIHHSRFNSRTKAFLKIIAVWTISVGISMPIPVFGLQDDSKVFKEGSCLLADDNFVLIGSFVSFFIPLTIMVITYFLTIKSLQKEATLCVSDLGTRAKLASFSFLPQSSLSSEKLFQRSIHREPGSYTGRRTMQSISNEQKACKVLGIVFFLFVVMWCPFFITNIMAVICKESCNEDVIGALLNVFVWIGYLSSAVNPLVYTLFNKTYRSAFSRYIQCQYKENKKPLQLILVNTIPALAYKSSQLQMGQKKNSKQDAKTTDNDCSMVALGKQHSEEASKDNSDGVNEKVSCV
T1 sequence (P30989 whole entry): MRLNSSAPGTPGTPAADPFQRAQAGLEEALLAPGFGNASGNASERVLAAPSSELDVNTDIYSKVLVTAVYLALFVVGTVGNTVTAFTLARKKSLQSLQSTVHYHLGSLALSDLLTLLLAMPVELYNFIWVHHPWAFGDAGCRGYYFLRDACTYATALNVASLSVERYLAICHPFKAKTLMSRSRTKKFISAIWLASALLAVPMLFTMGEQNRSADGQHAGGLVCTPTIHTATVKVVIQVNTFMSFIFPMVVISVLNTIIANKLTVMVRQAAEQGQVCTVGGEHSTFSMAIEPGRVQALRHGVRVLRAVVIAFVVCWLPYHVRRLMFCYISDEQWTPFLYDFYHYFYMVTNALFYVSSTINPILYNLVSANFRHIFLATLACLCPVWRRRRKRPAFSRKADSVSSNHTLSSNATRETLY
Sequence of Dopamine receptors, human brain tissue (human) (P14416 whole entry): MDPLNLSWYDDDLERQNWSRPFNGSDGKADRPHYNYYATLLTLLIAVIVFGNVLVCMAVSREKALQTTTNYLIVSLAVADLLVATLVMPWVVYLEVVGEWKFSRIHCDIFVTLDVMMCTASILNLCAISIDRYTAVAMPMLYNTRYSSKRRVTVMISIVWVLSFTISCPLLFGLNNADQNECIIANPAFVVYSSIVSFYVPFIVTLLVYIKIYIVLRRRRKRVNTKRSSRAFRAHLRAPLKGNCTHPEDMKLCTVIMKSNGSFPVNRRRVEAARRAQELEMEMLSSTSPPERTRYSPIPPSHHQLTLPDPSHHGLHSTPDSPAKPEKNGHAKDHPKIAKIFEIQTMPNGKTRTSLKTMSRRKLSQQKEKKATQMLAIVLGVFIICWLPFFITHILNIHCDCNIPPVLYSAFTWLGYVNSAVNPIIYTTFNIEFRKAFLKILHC

Q: Which dpm/µg protein (dpm/µg protein) [1] does the source give for Neurotensin (NT) (peptide) here?
A: 2.34

Q: What about the dpm/µg protein (dpm/µg protein) [2] of the same molecule?
A: 1.89

Q: What about the dpm/µg protein (dpm/µg protein) [3] of the same molecule?
A: 2.1

Q: With NT69L (peptide) as the molecule, how does the PI Turnover EC50 (human NTR1 [4]) read?
A: 2.3 nM

Q: And the PI turnover potency, fold improvement over Eisai analog (human NTR1 [4])?
A: 130 fold

Q: And the PI Turnover EC50 (rat NTR1 [5])?
A: 1.34 nM

Q: What about the PI turnover potency, fold improvement over Eisai analog (rat NTR1 [5]) of the same molecule?
A: 2 fold

Q: And the Kd [6]?
A: 13300 nM

Q: And the Kd [7]?
A: 58600 nM

Q: And the Kd [8]?
A: 34600 nM

Q: What about the Kd (human NTR1 [9]) of the same molecule?
A: 1.55 nM

Q: What about the fold increase in binding affinity over Eisai (human NTR1 [9]) of the same molecule?
A: 60 fold

Q: What about the Kd (rat NTR1 [10]) of the same molecule?
A: 0.82 nM

Q: And the fold increase in binding affinity over Eisai (rat NTR1 [10])?
A: 6 fold

Q: And the Kd (rat NTR1 [11])?
A: 0.82 nM

Q: What about the Kd (human NTR1 [12]) of the same molecule?
A: 1.55 nM

Q: How did the Kd (rat NTR1 [10]) turn out when RRP[dneoTrp]IL (NT(8-13) analog) [NT64D] was run?
A: 3.8 nM

B1: Eisai (peptide)
peptide: [NMeR]KPW[Tle]L
notes: Hexapeptide N-methyl-Arg, L-Lys, L-Pro, L-Trp, tert-Leu, L-Leu (Tsuchiya et al., EP application 89104302.8); also called Eisai compound; Eisai analog
Q: Which results are given for B1?
A: PI turnover potency, fold weaker at human than at rat NT receptor (human NTR1 [13]): ~100 fold; PI Turnover EC50 (human NTR1 [14]): 300 nM; PI Turnover EC50 (rat NTR1 [5]): 3.1 nM; Kd (rat NTR1 [10]): 5.4 nM; Kd (human NTR1 [15]): 95 nM; fold weaker than at the rat receptor (human NTR1 [15]): ~20 fold

B2: NT(8-13) (peptide)
peptide: RRPYIL
notes: Synthetic hexapeptide, residues 8-13 of neurotensin
Q: Which Kd [8] does the source give for B2 here?
A: 4400 nM

Q: With RRPWIL [NTW] as the molecule, how does the “PI Turnover EC50” value (human NTR1 [14]) read?
A: 110 nM

Q: What about the Kd (rat NTR1 [10]) of the same molecule?
A: 0.34 nM

Q: And the Kd (human NTR1 [15])?
A: 3.2 nM

Q: And the “fold reduction in binding affinity compared to NT64L” value (human NTR1 [16])?
A: > 30 fold

Q: How did the Kd (rat NTR1 [10]) turn out when RRP[Ala(indol-4-yl)][Tle]L (NT(8-13) analog) [NT65L] was run?
A: 0.075 nM

Q: And the Kd (human NTR1 [15])?
A: 0.32 nM

Q: And the “fold decrease in binding affinity compared to NT64L” value (human NTR1 [17])?
A: 3 fold

Q: For [dK]RPYIL (NT(8-13) analog) [NT2], which Kd [8] is on record?
A: 6800 nM

Q: And the Kd (rat NTR1 [10])?
A: 0.8 nM

Q: With RRP[Ala(indol-4-yl)]IL (NT(8-13) analog) [NT64L] as the molecule, how does the “PI Turnover EC50” value (rat NTR1 [5]) read?
A: 2.3 nM

Q: And the Kd [8]?
A: 6600 nM

Q: What about the Kd (rat NTR1 [10]) of the same molecule?
A: 0.1 nM

B3: NT(9-13) (peptide)
peptide: RPYIL
notes: Synthetic pentapeptide, residues 9-13 of neurotensin
Q: What does the source list for B3?
A: PI Turnover EC50 (human NTR1 [14]): 380 nM; Kd [8]: 6340 nM; Kd (rat NTR1 [10]): 46 nM; fold weaker than NT(8-13) (rat NTR1 [10]): > 200 fold; Kd (human NTR1 [15]): 30 nM; fold weaker than NT(8-13) (human NTR1 [15]): > 200 fold

Q: With RRP[1Nal]IL (NT(8-13) analog) [NT34] as the molecule, how does the Kd (rat NTR1 [10]) read?
A: 0.046 nM

Q: Which “PI Turnover EC50” value (rat NTR1 [5]) does the source give for [dK]RP[Ala(indol-4-yl)]IL (NT(8-13) analog) [NT67L] here?
A: 13 nM

Q: And the Kd [18]?
A: 6900 nM

Q: And the Kd [8]?
A: 7400 nM

Q: And the Kd (rat NTR1 [10])?
A: 0.21 nM

Q: What about the Kd (rat NTR1 [11]) of the same molecule?
A: 0.21 nM
